Source: the supplement of paper PMC7125110
± gives the standard error. For some of these results: Fewer inactive variants are shown than the library holds.

B1: glmS ribozyme (parent)
chain: AUAAAAGCGCCAGAACUACAGAAAUGUAGUUGACGAGGAGGAGGUUUAUCGAAUUUUCGGCGGAUGCCUCCAAA

Columns and labels:
Conditions in all cases: with glucosamine-6-phosphate
glucosamine-6-phosphate [1] = variants of: B1; assay: kcat; higher = faster cleavage; RNA array
Method in brief: (§1)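 Barcoded ribozyme variants on sequenced MiSeq chips were transcribed in situ by E. coli RNA polymerase and followed at 37 °C through a hybridised Cy3 probe. Glucosamine-6-phosphate at 40 μM to 10 mM in HEPES/KCl/Mg(OAc)2 buffer was flowed in, and tiles were imaged over ~14 h. Signals were normalised to baseline and to non-cleaving reference variants, and per-tile medians were fit to one- or two-exponential decays to give kobs. Weighted Michaelis–Menten fits across concentrations gave kcat and KM.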

glucosamine-6-phosphate [2] = variants of: B1; assay: self-cleavage kobs at 40 uM GlcN6P; higher = faster cleavage; RNA array
Method in brief: as §1

glucosamine-6-phosphate [3] = variants of: B1; assay: self-cleavage kobs at 160 uM GlcN6P; higher = faster cleavage; RNA array
Method in brief: as §1

glucosamine-6-phosphate [4] = variants of: B1; assay: KM; higher = weaker cofactor use; RNA array
Method in brief: as §1

glucosamine-6-phosphate [5] = variants of: B1; assay: self-cleavage kobs at 640 uM GlcN6P; higher = faster cleavage; RNA array
Method in brief: as §1

glucosamine-6-phosphate [6] = variants of: B1; assay: self-cleavage kobs at 2500 uM GlcN6P; higher = faster cleavage; RNA array
Method in brief: as §1

glucosamine-6-phosphate [7] = variants of: B1; assay: self-cleavage kobs at 10000 uM GlcN6P; higher = faster cleavage; RNA array
Method in brief: as §1

Variant | kcat (glucosamine-6-phosphate [1]) [s⁻¹] | self-cleavage kobs at 40 uM GlcN6P (glucosamine-6-phosphate [2]) [s⁻¹] | self-cleavage kobs at 160 uM GlcN6P (glucosamine-6-phosphate [3]) [s⁻¹] | KM (glucosamine-6-phosphate [4]) [µM] | self-cleavage kobs at 640 uM GlcN6P (glucosamine-6-phosphate [5]) [s⁻¹] | self-cleavage kobs at 2500 uM GlcN6P (glucosamine-6-phosphate [6]) [s⁻¹] | self-cleavage kobs at 10000 uM GlcN6P (glucosamine-6-phosphate [7]) [s⁻¹]
A48G C68A | 1.35e-05 ± 5e-06 | < 1e-05 | – | – | – | – | –
U45C A48C | < 1e-05 | – | < 1e-05 | – | – | – | –
A52C U54A | 1.15e-05 ± 1.5e-06 | – | – | 368 ± 130 | – | – | –
A39G G66U | 0.00533 ± 0.00016 | 0.000107 ± 1.9e-05 | – | 1960 ± 79 | 0.00133 ± 0.00029 | 0.00285 ± 0.0009 | 0.00451 ± 0.00097
A39U C68U | 0.00901 ± 0.0018 | 0.000444 ± 8.6e-05 | 0.000829 ± 9e-05 | 1340 ± 420 | 0.00309 ± 0.00026 | 0.00636 ± 0.00063 | 0.00694 ± 0.0011
A12C U31A | 0.0133 ± 0.004 | 0.000142 ± 1.7e-05 | 0.000363 ± 7.2e-05 | 4520 ± 1700 | 0.00151 ± 0.00035 | 0.00434 ± 0.00085 | 0.00974 ± 0.0017
U55C U65G | 0.00367 ± 0.00064 | 4.04e-05 ± 1.8e-05 | 0.000212 ± 5.2e-05 | 2540 ± 680 | 0.000908 ± 0.00016 | 0.00177 ± 0.0003 | 0.00288 ± 0.00054
G38U A48G | < 1e-05 | < 1e-05 | – | – | < 1e-05 | – | –
A6U G29C | < 1e-05 | < 1e-05 | < 1e-05 | – | < 1e-05 | – | –
U45A U54A | 0.115 ± 0.045 | 0.00179 ± 0.00033 | 0.00611 ± 0.0017 | 2630 ± 1200 | 0.0204 ± 0.0069 | 0.122 ± 0.049 | 0.0819 ± 0.035
A15C U30A A48U | 6.89e-05 ± 1.4e-05 | < 1e-05 | – | – | – | 4.08e-05 ± 1.4e-05 | 5.4e-05 ± 2e-05
A15C C67A | 0.000713 ± 0.00031 | 5.14e-05 ± 1.2e-05 | 0.000103 ± 1.7e-05 | – | 0.000552 ± 0.0001 | 0.000389 ± 0.00012 | 0.000858 ± 0.00022
G40A G43C | < 1e-05 | – | – | – | < 1e-05 | – | –
A6U G43U | < 1e-05 | < 1e-05 | < 1e-05 | 6890 ± 1100 | < 1e-05 | – | –
C70U C71G | 0.000124 ± 1e-05 | – | 7e-05 ± 1.3e-05 | 242 ± 98 | 8.39e-05 ± 8.3e-06 | 0.000118 ± 9.3e-06 | 0.00012 ± 1.1e-05
G13A C16U | 0.000763 ± 9.4e-05 | – | 4.29e-05 ± 1.2e-05 | 2220 ± 460 | 0.000172 ± 2.2e-05 | 0.000459 ± 5.5e-05 | 0.000577 ± 7.9e-05

Variant | kcat (glucosamine-6-phosphate [1]) [s⁻¹] | self-cleavage kobs at 40 uM GlcN6P (glucosamine-6-phosphate [2]) [s⁻¹] | self-cleavage kobs at 160 uM GlcN6P (glucosamine-6-phosphate [3]) [s⁻¹] | KM (glucosamine-6-phosphate [4]) [µM] | self-cleavage kobs at 640 uM GlcN6P (glucosamine-6-phosphate [5]) [s⁻¹] | self-cleavage kobs at 2500 uM GlcN6P (glucosamine-6-phosphate [6]) [s⁻¹] | self-cleavage kobs at 10000 uM GlcN6P (glucosamine-6-phosphate [7]) [s⁻¹]
A36C U65G C70U | 1.94e-05 ± 5.3e-06 | – | – | – | – | – | –
A12U U49G | 0.00213 ± 0.00037 | 3.38e-05 ± 7.4e-06 | 9.35e-05 ± 1.5e-05 | 2950 ± 780 | 0.000495 ± 7.3e-05 | 0.000912 ± 0.00012 | 0.00167 ± 0.00018
A6C G59A | < 1e-05 | < 1e-05 | – | – | – | – | < 1e-05
G37A U65G | 0.000263 ± 1.3e-05 | – | – | 3870 ± 390 | 4.13e-05 ± 1.5e-05 | 0.000102 ± 1.2e-05 | 0.000191 ± 2.3e-05
A39U G60A | 2.79e-05 ± 2e-06 | – | < 1e-05 | 5820 ± 1100 | – | – | –
C11U G66A | 0.000908 ± 0.00021 | – | – | 2510 ± 1100 | 0.000205 ± 6e-05 | 0.000661 ± 0.00015 | 0.000673 ± 0.00012
G7U G51A G62A C70U | 1.17e-05 ± 2.6e-06 | – | – | – | – | – | –
U54C C68A | 2.49e-05 ± 6.3e-06 | < 1e-05 | – | – | – | – | –
C58G G66U | 1.05e-05 ± 2.2e-06 | – | < 1e-05 | – | – | – | –
G13U | 0.00254 ± 0.00046 | 3.52e-05 ± 1.3e-06 | 0.000104 ± 3.4e-06 | 3670 ± 840 | 0.000355 ± 7.3e-06 | 0.00118 ± 5e-05 | 0.00186 ± 5.8e-05
G13C | 0.000191 ± 5.2e-06 | – | – | 4220 ± 250 | 2.7e-05 ± 1.3e-06 | 6.98e-05 ± 1.4e-06 | 0.000135 ± 1.8e-06
G29U G59C | < 1e-05 | < 1e-05 | – | – | – | < 1e-05 | < 1e-05
C50G G59U C68G | 8.8e-05 ± 8.6e-06 | 6.82e-05 ± 2.8e-05 | – | – | 0.000101 ± 3e-05 | 0.000102 ± 2.2e-05 | 7.83e-05 ± 1.5e-05
C11U U56C | 0.000248 ± 5e-05 | – | – | 2260 ± 1000 | 4.51e-05 ± 9.7e-06 | 0.000176 ± 2.3e-05 | 0.000188 ± 2.3e-05
C11U U56A | 0.00124 ± 0.00023 | 3.72e-05 ± 1e-05 | 0.000103 ± 1.4e-05 | 1910 ± 580 | 0.000294 ± 4.5e-05 | 0.000621 ± 7.2e-05 | 0.00125 ± 0.00016
A39U A42U | 0.00653 ± 0.0017 | 0.000312 ± 7.2e-05 | 0.000582 ± 8.8e-05 | 1400 ± 530 | 0.00223 ± 0.00042 | 0.00602 ± 0.0014 | 0.00529 ± 0.00096
